Measurements: article PMC3107500 (2011)

T1: PITPNM3 (Homo sapiens, UniProt Q9BZ71)
T1 chain: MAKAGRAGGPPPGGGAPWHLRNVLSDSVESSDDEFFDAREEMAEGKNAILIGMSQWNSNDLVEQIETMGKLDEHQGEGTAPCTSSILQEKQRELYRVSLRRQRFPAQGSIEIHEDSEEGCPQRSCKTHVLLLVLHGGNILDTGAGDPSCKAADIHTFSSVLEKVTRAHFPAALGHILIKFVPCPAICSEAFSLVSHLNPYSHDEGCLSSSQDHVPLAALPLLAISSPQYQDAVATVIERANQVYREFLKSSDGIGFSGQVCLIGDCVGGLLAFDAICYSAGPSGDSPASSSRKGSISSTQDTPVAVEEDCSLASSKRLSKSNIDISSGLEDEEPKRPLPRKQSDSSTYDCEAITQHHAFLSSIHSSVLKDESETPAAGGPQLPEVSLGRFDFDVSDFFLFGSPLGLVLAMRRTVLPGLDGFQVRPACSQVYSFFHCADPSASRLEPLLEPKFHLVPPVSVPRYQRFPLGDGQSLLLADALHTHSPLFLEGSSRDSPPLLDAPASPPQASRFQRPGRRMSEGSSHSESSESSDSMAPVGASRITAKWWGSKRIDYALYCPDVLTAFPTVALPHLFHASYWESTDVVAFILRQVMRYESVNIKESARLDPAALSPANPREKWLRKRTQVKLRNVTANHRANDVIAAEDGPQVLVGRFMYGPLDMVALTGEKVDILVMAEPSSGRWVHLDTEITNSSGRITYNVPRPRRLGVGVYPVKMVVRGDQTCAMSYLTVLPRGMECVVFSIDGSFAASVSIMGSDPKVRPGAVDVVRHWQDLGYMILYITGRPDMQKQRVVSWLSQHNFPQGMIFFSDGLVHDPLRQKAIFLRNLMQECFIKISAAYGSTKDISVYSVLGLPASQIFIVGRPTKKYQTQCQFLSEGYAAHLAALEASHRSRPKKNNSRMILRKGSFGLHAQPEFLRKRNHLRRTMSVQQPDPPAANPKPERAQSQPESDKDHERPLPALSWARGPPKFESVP

B1: CCL3 (protein)
chain: SLAADTPTACCFSYTSRQIPQNFIADYFETSSQCSKPGVIFLTKRSRQVCADPSEEWVQKYVSDLELSA
B2: CCL18 (protein)
chain: GTNKELCCLVYTSWQIPQKFIVDYSETSPQCPKPGVILLTKRGRQICADPNKKWVQKYISDLKLNA
B3: CCL4 (protein)
chain: APMGSDPPTACCFSYTARKLPRNFVVDYYETSSLCSQPAVVFQTKRSKQVCADPSESWVQEYVYDLELN

Biological target: T1, PITPNM3
Experiment: 125I-CCL18 radioligand competition binding on PITPNM3-transfected HEK293 cells

Binder | Kd [nM]
B1 | 277
B2 | 5.17
B3 | 833
